Our source for the percent of Arp1 in the monomer/dimer pool values is PMC4501363.

The assay concerns the target actin-related protein 1 (human (endogenous in HEK293T)) (UniProt P61163). In words: co-sedimentation.

Turning to “actin-related protein 1 (from UniProt P61163 1-376) (natural protein)”, the percent of Arp1 in the monomer/dimer pool was less than 5%.
